Reference: paper PMC4490372, “Architecture of TFIIIC and its role in RNA polymerase III pre-initiation complex assembly” (Nature Communications, 2015)

T1: τ91 (Tfc6), τB subunit of endogenous S. cerevisiae TFIIIC (S. cerevisiae, UniProt Q06339 1-672)
T1 construct: τ91 (Tfc6), subunit of S. cerevisiae TFIIIC, endogenous subunit in the purified complex; source: endogenous, purified from S. cerevisiae strain SC2342 as part of TFIIIC (TAP tag on τ60)
T1 sequence (looked up): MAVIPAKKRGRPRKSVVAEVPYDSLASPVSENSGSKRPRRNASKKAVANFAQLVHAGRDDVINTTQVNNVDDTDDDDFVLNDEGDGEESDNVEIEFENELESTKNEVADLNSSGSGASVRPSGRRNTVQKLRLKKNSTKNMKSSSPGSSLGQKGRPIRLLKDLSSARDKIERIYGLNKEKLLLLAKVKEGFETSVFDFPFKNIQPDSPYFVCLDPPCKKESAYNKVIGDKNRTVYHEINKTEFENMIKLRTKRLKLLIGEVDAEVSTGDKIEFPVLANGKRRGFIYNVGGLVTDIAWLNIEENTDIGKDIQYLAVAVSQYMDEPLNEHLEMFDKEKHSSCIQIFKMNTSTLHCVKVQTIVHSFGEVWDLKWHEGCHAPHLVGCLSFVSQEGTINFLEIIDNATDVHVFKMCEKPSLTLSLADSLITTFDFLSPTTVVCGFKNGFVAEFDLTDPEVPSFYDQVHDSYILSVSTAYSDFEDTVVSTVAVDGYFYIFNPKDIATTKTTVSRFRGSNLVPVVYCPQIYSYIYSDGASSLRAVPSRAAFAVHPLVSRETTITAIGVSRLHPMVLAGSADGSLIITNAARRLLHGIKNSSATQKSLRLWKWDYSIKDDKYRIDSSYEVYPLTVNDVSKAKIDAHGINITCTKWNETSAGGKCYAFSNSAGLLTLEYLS

T2: Bdp1, full-length, recombinant (UniProt P46678 1-594)
T2 construct: Bdp1, subunit of TFIIIB, full-length; also called untagged Bdp1; source: E. coli BL21 Star (DE3) pRARE, purified (Ni-NTA, TEV cleavage, S200 SEC); not shown: His6, N-terminal, cleaved
T2 sequence (looked up): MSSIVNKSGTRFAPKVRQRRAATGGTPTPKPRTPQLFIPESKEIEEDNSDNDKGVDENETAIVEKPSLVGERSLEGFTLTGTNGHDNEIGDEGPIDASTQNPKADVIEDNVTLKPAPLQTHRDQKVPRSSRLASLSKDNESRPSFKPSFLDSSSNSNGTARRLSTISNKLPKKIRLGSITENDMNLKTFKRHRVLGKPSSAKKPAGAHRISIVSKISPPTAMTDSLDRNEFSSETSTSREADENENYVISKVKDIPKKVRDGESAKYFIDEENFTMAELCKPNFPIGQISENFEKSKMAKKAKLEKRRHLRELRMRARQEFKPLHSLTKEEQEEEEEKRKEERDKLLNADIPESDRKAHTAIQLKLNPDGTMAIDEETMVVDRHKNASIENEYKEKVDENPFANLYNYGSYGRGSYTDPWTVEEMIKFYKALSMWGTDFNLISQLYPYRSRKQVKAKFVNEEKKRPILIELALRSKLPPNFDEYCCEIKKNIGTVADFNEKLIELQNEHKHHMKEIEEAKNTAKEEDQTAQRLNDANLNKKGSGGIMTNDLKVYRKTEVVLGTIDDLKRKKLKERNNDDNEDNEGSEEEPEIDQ


Assays:
[1] = target: T1, τ91 (Tfc6), τB subunit of endogenous S. …; assay: SEC; endogenous TFIIIC purified from yeast by the TAP tag on τ60 (heparin, IgG Sepharose, TEV, MonoQ), then Superose 6 10/300 in 25 mM HEPES pH 7.5, 150 mM NaCl, 1 mM DTT; SDS-PAGE of an elution peak fraction; settings: partners not purified
[2] = target: T2, Bdp1, full-length, recombinant; assay: pull-down; 15 μg GST-tagged τ131 on Glutathione Sepharose 4B; 300 nM τ138 or Bdp1, or 1 μM Brf1–TBP; 50 mM Tris pH 7.5, 150 mM NaCl, 2 mM DTT, 0.1% Tween20; 4 °C, 4 h; settings: both partners purified

Row | binding result [1] | binding result [2] | Binder
1 | binds | – | τ60 (Tfc8), τB subunit of endogenous S. cerevisiae TFIIIC, fused with a C-terminal TAP-tag (natural protein, UniProt Q12308 1-588, looked up, τ60 (Tfc8), subunit of S. cerevisiae TFIIIC, endogenous TFC8 fused with a C-terminal TAP-tag; The complex was captured on IgG Sepharose by the TAP tag and released by TEV protease before MonoQ, Superose 6 and cross-linking; not shown: TAP, C-terminal, kept) MKLLKDLLVDRKEFEDWKNNLTWARDGTLYLTTFPDISIGQPKYAKDINCNSKNLFHVKEFPLEFENKLDFELAQQNGLLNSQPVCYPRVCKPSPIDDWMAVLSNNGNVSVFKDNKMLTNLDSKGNLSSRTYHCFEWNPIESSIVVGNEDGELQFFSIRKNSENTPEFYFESSIRLSDAGSKDWVTHIVWYEDVLVAALSNNSVFSMTVSASSHQPVSRMIQNASRRKITDLKIVDYKVVLTCPGYVHKIDLKNYSISSLKTGSLENFHIIPLNHEKESTILLMSNKTSYKVLLEDELHVTADNIIAPYLEKKFKKWSTIWNEFNNYETTLVIHGISLSPDGYSIAIVYDMERVAFKYKIASEQSFNIMFAPLYHTWTISERAVGLAWYQTYQIYNQSLPKLPENFSMNKKLLNGNYPISLDFQSYLNALMKSEEMRIIMFLNMTIDKPSILSFLEALYEYAINKKSELTNSFDLACVLSIAAILKREAPIYNGTLLMKNSFLEETFNLESFTADPETVTSTTNNTWKRCGVTLLPILTTHVKICPVSKQRVIDIKRDDLNDYGWFTRGLLERFNEISVYCGTTLEVM
2 | – | binds | GST-tagged τ131 (123–566), wild type (domain or fragment, S. cerevisiae, UniProt P33339 123-566, looked up, also called GST-τ131; source: E. coli BL21 (DE3) Gold, purified (GST column, S200 SEC)) VLDPEVAQLLSQANEAFVRNDLQVAERLFNEVIKKDARNFAAYETLGDIYQLQGRLNDCCNSWFLAAHLNASDWEFWKIVAILSADLDHVRQAIYCFSRVISLNPMEWESIYRRSMLYKKTGQLARALDGFQRLYMYNPYDANILRELAILYVDYDRIEDSIELYMKVFNANVERREAILAALENALDSSDEESAAEGEDADEKEPLEQDEDRQMFPDINWKKIDAKYKCIPFDWSSLNILAELFLKLAVSEVDGIKTIKKCARWIQRRESQTFWDHVPDDSEFDNRRFKNSTFDSLLAAEKEKSYNIPIDIRVRLGLLRLNTDNLVEALNHFQCLYDETFSDVADLYFEAATALTRAEKYKEAIDFFTPLLSLEEWRTTDVFKPLARCYKEIESYETAKEFYELAIKSEPDDLDIRVSLAEVYYRLNDPETFKHMLVDVVEMR
3 | – | binds | GST-tagged τ131 (1–580), wild type (domain or fragment, S. cerevisiae, UniProt P33339 1-580, looked up, τ131 (Tfc4) of S. cerevisiae TFIIIC, residues 1-580 (extended N terminus and TPR array); also called GST-τ131 (1–580); longer τ131 protein; source: E. coli BL21 (DE3) Gold, purified (GST column, S200 SEC)) MAAGKLKKEQQNQSAERESADTGKVNDEDEEHLYGNIDDYKHLIQDEEYDDEDVPHDLQLSEDEYNSERDSSLLAEFSDYGEISEDDEEDFMNAIREASNFKVKKKKKNDKGKSYGRQRKERVLDPEVAQLLSQANEAFVRNDLQVAERLFNEVIKKDARNFAAYETLGDIYQLQGRLNDCCNSWFLAAHLNASDWEFWKIVAILSADLDHVRQAIYCFSRVISLNPMEWESIYRRSMLYKKTGQLARALDGFQRLYMYNPYDANILRELAILYVDYDRIEDSIELYMKVFNANVERREAILAALENALDSSDEESAAEGEDADEKEPLEQDEDRQMFPDINWKKIDAKYKCIPFDWSSLNILAELFLKLAVSEVDGIKTIKKCARWIQRRESQTFWDHVPDDSEFDNRRFKNSTFDSLLAAEKEKSYNIPIDIRVRLGLLRLNTDNLVEALNHFQCLYDETFSDVADLYFEAATALTRAEKYKEAIDFFTPLLSLEEWRTTDVFKPLARCYKEIESYETAKEFYELAIKSEPDDLDIRVSLAEVYYRLNDPETFKHMLVDVVEMRKHQVDETLHRISNE
